In patent US20210246166A1 (Bayer, published 2021):
Values belong to the binder of their own block, whether it stands above or below them. Bridge positions count the residues as written; N and C are the ends. Square brackets hold non-standard residues; d marks the D form. Ends that are not written are not given here. PEG9 = NCCOCCOCCOCCOCCOCCOCCOCCOCCOCCC(=O)O; PEG8 = NCCOCCOCCOCCOCCOCCOCCOCCOCCC(=O)O; tBuAla = CC(C)(C)C[C@H](N)C(=O)O; Pen = CC(C)(S)[C@H](N)C(=O)O; PEG2 = NCCOCCOCCC(=O)O; Sar = CNCC(=O)O

Experiments:
Experiment in all cases: cell-based or functional assay
[1] = target: Recombinant human MASP2 active protease (amino acids 297-686, C-terminal His Tag) (human, UniProt O00187 297-686)
[2] = target: T1, Recombinant human MASP1 active protease (amino acids 297-699, C-terminal His Tag) (human, UniProt P48740 297-699)
T1 sequence: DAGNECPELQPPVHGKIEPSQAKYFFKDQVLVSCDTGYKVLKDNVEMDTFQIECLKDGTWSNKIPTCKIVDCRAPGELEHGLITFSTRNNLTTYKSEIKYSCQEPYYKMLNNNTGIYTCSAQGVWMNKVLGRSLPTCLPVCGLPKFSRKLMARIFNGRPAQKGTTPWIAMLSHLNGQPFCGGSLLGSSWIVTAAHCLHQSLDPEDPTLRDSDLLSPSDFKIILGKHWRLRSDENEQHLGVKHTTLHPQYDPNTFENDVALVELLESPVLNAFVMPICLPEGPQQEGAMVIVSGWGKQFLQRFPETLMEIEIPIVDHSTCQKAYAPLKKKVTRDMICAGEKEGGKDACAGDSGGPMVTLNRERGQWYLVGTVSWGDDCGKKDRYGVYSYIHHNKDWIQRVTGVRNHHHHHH

[3] = target: Recombinant rat MASP2 enzyme (fragment corresponding to amino acids 296-685, C-terminal His Tag) (rat, UniProt Q9JJS8 296-685)
[4] = target: T2, Recombinant rat MASP1 enzyme (fragment corresponding to amino acids 302-704, C-terminal His Tag) (rat, UniProt Q8CHN8 302-704)
T2 sequence: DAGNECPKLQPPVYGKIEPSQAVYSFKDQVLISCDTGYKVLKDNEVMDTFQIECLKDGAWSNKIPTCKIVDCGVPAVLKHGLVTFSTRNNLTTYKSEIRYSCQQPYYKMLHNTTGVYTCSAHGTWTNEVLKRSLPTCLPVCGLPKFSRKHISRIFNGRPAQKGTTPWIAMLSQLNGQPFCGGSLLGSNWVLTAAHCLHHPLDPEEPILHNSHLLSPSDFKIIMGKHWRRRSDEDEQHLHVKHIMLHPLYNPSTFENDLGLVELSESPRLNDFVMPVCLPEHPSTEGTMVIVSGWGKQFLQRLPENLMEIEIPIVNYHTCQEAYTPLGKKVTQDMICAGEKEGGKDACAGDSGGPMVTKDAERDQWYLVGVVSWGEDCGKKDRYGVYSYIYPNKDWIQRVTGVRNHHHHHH

[5] = target: Recombinant human MASP2 enzyme (fragment corresponding to amino acids 297-686, C-terminal His Tag) (human, UniProt O00187 297-686)
[6] = target: T3, Recombinant human MASP1 enzyme (fragment corresponding to amino acids 297-699, C-terminal His Tag) (human, UniProt P48740 297-699)
T3 sequence: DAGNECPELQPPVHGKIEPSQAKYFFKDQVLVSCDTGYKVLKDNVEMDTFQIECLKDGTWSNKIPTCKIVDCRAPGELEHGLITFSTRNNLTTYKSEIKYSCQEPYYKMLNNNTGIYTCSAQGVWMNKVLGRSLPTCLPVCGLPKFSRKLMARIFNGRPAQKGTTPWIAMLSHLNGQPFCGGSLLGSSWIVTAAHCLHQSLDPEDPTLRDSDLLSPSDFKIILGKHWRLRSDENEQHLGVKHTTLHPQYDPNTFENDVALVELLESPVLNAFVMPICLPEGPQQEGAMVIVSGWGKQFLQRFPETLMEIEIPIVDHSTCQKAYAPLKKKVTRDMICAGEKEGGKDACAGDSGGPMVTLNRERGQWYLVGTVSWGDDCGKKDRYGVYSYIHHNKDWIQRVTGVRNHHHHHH

Recombinant rat MASP2 enzyme (fragment corresponding to amino acids 296-685, C-terminal His Tag), sequence (Q9JJS8 other isoform, or with tags, fused parts or gaps limits assumed): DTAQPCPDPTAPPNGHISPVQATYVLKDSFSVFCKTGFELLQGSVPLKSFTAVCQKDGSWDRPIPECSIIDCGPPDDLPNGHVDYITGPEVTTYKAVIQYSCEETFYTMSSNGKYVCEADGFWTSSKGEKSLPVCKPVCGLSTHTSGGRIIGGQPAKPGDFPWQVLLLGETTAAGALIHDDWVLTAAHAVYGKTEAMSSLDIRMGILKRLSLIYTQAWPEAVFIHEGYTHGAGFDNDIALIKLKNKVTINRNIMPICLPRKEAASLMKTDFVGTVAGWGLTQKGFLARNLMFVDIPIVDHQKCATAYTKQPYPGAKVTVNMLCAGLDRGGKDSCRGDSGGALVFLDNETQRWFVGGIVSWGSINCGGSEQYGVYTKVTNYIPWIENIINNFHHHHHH
Recombinant human MASP2 active protease (amino acids 297-686, C-terminal His Tag), sequence (O00187 other isoform, or with tags, fused parts or gaps limits assumed): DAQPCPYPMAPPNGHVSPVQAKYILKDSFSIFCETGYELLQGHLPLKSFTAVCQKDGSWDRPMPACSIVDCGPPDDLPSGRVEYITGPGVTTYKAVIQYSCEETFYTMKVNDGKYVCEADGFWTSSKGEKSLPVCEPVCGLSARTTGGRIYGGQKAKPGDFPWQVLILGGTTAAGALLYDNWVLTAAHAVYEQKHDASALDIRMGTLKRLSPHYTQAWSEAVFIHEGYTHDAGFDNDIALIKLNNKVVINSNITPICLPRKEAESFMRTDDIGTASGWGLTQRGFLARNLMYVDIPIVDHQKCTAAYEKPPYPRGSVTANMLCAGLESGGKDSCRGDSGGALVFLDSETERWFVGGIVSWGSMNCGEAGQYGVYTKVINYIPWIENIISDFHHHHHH
Recombinant human MASP2 enzyme (fragment corresponding to amino acids 297-686, C-terminal His Tag), sequence (O00187 other isoform, or with tags, fused parts or gaps limits assumed): as above

Binder: GICSRSLPPICIPD-NH2 (disulfide 3-11; also: TFA salt) [SFMI-1 amide, GIC+SRSLPPIC+IPD-NH2 (Reference No 3)]
- human MASP2 IC50 (FRET substrate cleavage, enzyme activity) [1]: 610 nM
- human MASP1 IC50 (FRET substrate cleavage, enzyme activity) [2]: 18 nM

B1: GIC+SRSLPPIC+IPD-OH (peptide)
peptide: GICSRSLPPICIPD-OH
modifications: disulfide 3-11; N-terminus assumed
SMILES: CC[C@H](C)[C@H](NC(=O)CN)C(=O)N[C@H]1CSSC[C@@H](C(=O)N[C@H](C(=O)N2CCC[C@H]2C(=O)N[C@@H](CC(=O)O)C(=O)O)[C@@H](C)CC)NC(=O)[C@H]([C@@H](C)CC)NC(=O)[C@@H]2CCCN2C(=O)[C@@H]2CCCN2C(=O)[C@H](CC(C)C)NC(=O)[C@H](CO)NC(=O)[C@H](CCCNC(=N)N)NC(=O)[C@H](CO)NC1=O
- rat MASP2 IC50 [3]: 68 nM
- rat MASP1 IC50 [4]: 68.6 nM

B3: ((N-Me)G)-IC+SRS-((tBu)A)-PPI-(Pen)+IP-(PEG1(10 atoms))-OH (peptide)
peptide: [Sar]ICSRS[tBuAla]PPI[Pen]IP[PEG2]-OH
modifications: disulfide 3-11; N-terminus assumed
SMILES: CC[C@H](C)[C@H](NC(=O)CNC)C(=O)N[C@H]1CSSC(C)(C)[C@@H](C(=O)N[C@H](C(=O)N2CCC[C@H]2C(=O)NCCOCCOCCC(=O)O)[C@@H](C)CC)NC(=O)[C@H]([C@@H](C)CC)NC(=O)[C@@H]2CCCN2C(=O)[C@@H]2CCCN2C(=O)[C@H](CC(C)(C)C)NC(=O)[C@H](CO)NC(=O)[C@H](CCCNC(=N)N)NC(=O)[C@H](CO)NC1=O
- human MASP2 IC50 [5]: 39 nM
- human MASP1 IC50 [6]: 2.3 nM

Binder: [Sar]ICSRS[tBuAla]PPI[Pen]IP-{PEG9-OH} (disulfide 3-11) [((N-Me)G)-IC+SRS-((tBu)A)-PPI-(Pen)+IP-(PEG9(31 atoms))-OH]
- human MASP2 IC50 [5]: 62 nM
- human MASP1 IC50 [6]: 6.3 nM

Binder: AICSRSLPPICIPD-NH2 (disulfide 3-11; also: HCl salt) [Ala-1 SFMI-1 HCl amide, AIC+SRSLPPIC+IPD-NH2 (HCl Salt) (Reference No C)]
- human MASP2 IC50 (FRET substrate cleavage, enzyme activity) [1]: 3000 nM
- human MASP1 IC50 (FRET substrate cleavage, enzyme activity) [2]: 3.6 nM

Binder: AICSRSLPPICIPD-NH2 (disulfide 3-11; also: TFA salt) [Ala-1 SFMI-1 amide, AIC+SRSLPPIC+IPD-NH2 (Reference No B)]
- human MASP2 IC50 (FRET substrate cleavage, enzyme activity) [1]: 390 nM
- human MASP1 IC50 (FRET substrate cleavage, enzyme activity) [2]: 8 nM

Binder: AICSRSLPPICIPD-OH (disulfide 3-11; also: TFA salt) [Ala-1 SFMI-1, AIC+SRSLPPIC+IPD-OH (Reference No A)]
- human MASP2 IC50 (FRET substrate cleavage, enzyme activity) [1]: 914 nM
- human MASP1 IC50 (FRET substrate cleavage, enzyme activity) [2]: 7.45 nM

Binder: AICSRSLPPICIPD-NH2 (disulfide 3-11; also: HCl salt) [AIC+SRSLPPIC+IPD-NH2 (HCl Salt)]
- rat MASP1 IC50 [4]: 210 nM

Binder: GICSRSLPPICIPD-OH (disulfide 3-11; also: HCl salt) [SFMI-1 HCl, GIC+SRSLPPIC+IPD-OH (HCl Salt) (Reference No 2)]
- human MASP2 IC50 (FRET substrate cleavage, enzyme activity) [1]: 610 nM
- human MASP1 IC50 (FRET substrate cleavage, enzyme activity) [2]: 18 nM

Results, then the binder that gave them:

- human MASP2 IC50 (FRET substrate cleavage, enzyme activity) [1]: 1090 nM
- human MASP1 IC50 (FRET substrate cleavage, enzyme activity) [2]: 15.6 nM
Binder: GICSRSLPPICIPD-OH (disulfide 3-11; also: TFA salt) [SFMI-1, GIC+SRSLPPIC+IPD-OH (Reference No 1)]

- rat MASP2 IC50 [3]: 68.4 nM
- rat MASP1 IC50 [4]: 50.2 nM
B2: AIC+SRSLPPIC+IPD-OH (peptide)
peptide: AICSRSLPPICIPD-OH
modifications: disulfide 3-11; N-terminus assumed
SMILES: CC[C@H](C)[C@H](NC(=O)[C@H](C)N)C(=O)N[C@H]1CSSC[C@@H](C(=O)N[C@H](C(=O)N2CCC[C@H]2C(=O)N[C@@H](CC(=O)O)C(=O)O)[C@@H](C)CC)NC(=O)[C@H]([C@@H](C)CC)NC(=O)[C@@H]2CCCN2C(=O)[C@@H]2CCCN2C(=O)[C@H](CC(C)C)NC(=O)[C@H](CO)NC(=O)[C@H](CCCNC(=N)N)NC(=O)[C@H](CO)NC1=O

- human MASP2 IC50 [5]: 76 nM
- human MASP1 IC50 [6]: 7.9 nM
Binder: [Sar]ICSRS[tBuAla]PPI[Pen]IP-{PEG8-OH} (disulfide 3-11) [((N-Me)G)-IC+SRS-((tBu)A)-PPI-(Pen)+IP-(PEG8(28 atoms))-OH]

- rat MASP2 IC50 [3]: 54.2 nM
- rat MASP1 IC50 [4]: 83.4 nM
B4: AIC+SRSLPPIC+IPD-NH2 (peptide)
peptide: AICSRSLPPICIPD-NH2
modifications: disulfide 3-11; N-terminus assumed
SMILES: CC[C@H](C)[C@H](NC(=O)[C@H](C)N)C(=O)N[C@H]1CSSC[C@@H](C(=O)N[C@H](C(=O)N2CCC[C@H]2C(=O)N[C@@H](CC(=O)O)C(N)=O)[C@@H](C)CC)NC(=O)[C@H]([C@@H](C)CC)NC(=O)[C@@H]2CCCN2C(=O)[C@@H]2CCCN2C(=O)[C@H](CC(C)C)NC(=O)[C@H](CO)NC(=O)[C@H](CCCNC(=N)N)NC(=O)[C@H](CO)NC1=O

- human MASP2 IC50 [5]: 47 nM
- human MASP1 IC50 [6]: 2.3 nM
B5: ((N-Me)G)-IC+SRS-((tBu)A)-PPI-(Pen)+IP-((N-Me)G)-((N-Me)G)-((N-Me)G)-OH (peptide)
peptide: [Sar]ICSRS[tBuAla]PPI[Pen]IP[Sar][Sar][Sar]-OH
modifications: disulfide 3-11; N-terminus assumed
SMILES: CC[C@H](C)[C@H](NC(=O)CNC)C(=O)N[C@H]1CSSC(C)(C)[C@@H](C(=O)N[C@H](C(=O)N2CCC[C@H]2C(=O)N(C)CC(=O)N(C)CC(=O)N(C)CC(=O)O)[C@@H](C)CC)NC(=O)[C@H]([C@@H](C)CC)NC(=O)[C@@H]2CCCN2C(=O)[C@@H]2CCCN2C(=O)[C@H](CC(C)(C)C)NC(=O)[C@H](CO)NC(=O)[C@H](CCCNC(=N)N)NC(=O)[C@H](CO)NC1=O
